Measured values taken from US20050182242A1, “Global analysis of protein activities using proteome chips” (priority 2001, published 2005).

B1: TFB3: yeast GST-HisX6 fusion protein on proteome chip (protein, UniProt Q03290 1-321, looked up)
RNA polymerase II …: MLMDEYEENKDMCPICKTDRYLSPDVKFLVNPECYHRICESCVDRIFSLGPAQCPYKGCDKILRKNKFKTQIFDDVEVEKEVDIRKRVFNVFNKTIDDFNGDLVEYNKYLEEVEDIIYKLDHGIDVAKTEEKLRTYEELNKQLIMNNLERSRTEIESFEQRQKFEKEMKLKKRLLERQIEEEERMNKEWTKKEIVNRLSTTTQDINETIEGVKNTVKLKKSSARRKLEELNRVLKNNPYFNSNVNVQNSRLKDAVPFTPFNGDREAHPRFTLKGSVYNDPFIKDLEHRKEFIASGFNTNYAYERVLTEAFMGLGCVISEEL
modifications: GST-His6 tag
notes: yeast GST-HisX6 fusion protein on proteome chip
B2: PCL6: yeast GST-HisX6 fusion protein on proteome chip (protein, UniProt P40038 1-420, looked up)
PHO85 cyclin-6: MSIKGDSPSSTNASSSPKSTYSIQSDDKANLGSGNVDIRTDNSQQDSNNRRDIVVVTRVASEETLESQSSTSSMGIRPESSFNYEDASNQARVEMNNRVHGSNMNTINKYYPVRFPKNNERQLSDTNNLNEKVQGTHTVQSSTQEDKILDGDTSNSQVTPSLNIAEFPTDKLLKMLTALLTKIIKSNDRTAATNPSLTQEIENGRCLALSDNEKKYLSPVLGFRGKHVPQIGLDQYFQRIQKYCPTTNDVFLSLLVYFDRISKRCNSVTTTPKTNTAKHESPSNESSLDKANRGADKMSACNSNENNENDDSDDENTGVQRDSRAHPQMFVMDSHNIHRLIIAGITVSTKFLSDFFYSNSRYSRVGGISLQELNHLELQFLVLCDFELLISVNELQRYADLLYRFWNNAKAQSQALVTGM
modifications: GST-His6 fusion tag
notes: as for B1
B3: GPA2: yeast GST-HisX6 fusion protein on proteome chip (protein, UniProt P10823 2-449, looked up)
Guanine nucleotide-binding …: GLCASSEKNGSTPDTQTASAGSDNVGKAKVPPKQEPQKTVRTVNTANQQEKQQQRQQQPSPHNVKDRKEQNGSINNAISPTATANTSGSQQINIDSALRDRSSNVAAQPSLSDASSGSNDKELKVLLLGAGESGKSTVLQQLKILHQNGFSEQEIKEYIPLIYQNLLEIGRNLIQARTRFNVNLEPECELTQQDLSRTMSYEMPNNYTGQFPEDIAGVISTLWALPSTQDLVNGPNASKFYLMDSTPYFMENFTRITSPNYRPTQQDILRSRQMTSGIFDTVIDMGSDIKMHIYDVGGQRSERKKWIHCFDNVTLVIFCVSLSEYDQTLMEDKNQNRFQESLVLFDNIVNSRWFARTSVVLFLNKIDLFAEKLSKVPMENYFPDYTGGSDINKAAKYILWRFVQLNRANLSIYPHVTQATDTSNIRLVFAAIKETILENTLKDSGVLQ
modifications: GST-His6 tag
notes: as for B1

Each molecule was assayed on PI(3)P liposomes (assay: Yeast proteome chip probed with PI(3)P liposomes). Details: liposome binding signal on yeast proteome chip, Cy3-streptavidin detection.

Molecule | PI(3)P
B1 | 71.00
B2 | 9.00
B3 | −50.50

These molecules were tested on PI(3,4)P2 liposomes (assay: Yeast proteome chip probed with PI(3,4)P2 liposomes). Details: liposome binding signal on yeast proteome chip, Cy3-streptavidin detection.

Molecule | PI(3, 4)P2
B1 | 47.72
B2 | 26.84
B3 | 119.93

Each molecule was assayed on PI(4,5)P2 liposomes (assay: Yeast proteome chip probed with PI(4,5)P2 liposomes). Details: liposome binding signal on yeast proteome chip, Cy3-streptavidin detection.

Molecule | PI(4, 5)P2
B1 | 37.23
B2 | 3.70
B3 | 44.85

The molecules below were run on PI(4)P liposomes (assay: Yeast proteome chip probed with PI(4)P liposomes). Details: liposome binding signal on yeast proteome chip, Cy3-streptavidin detection.

Molecule | PI(4)P
B1 | 43.98
B2 | 8.06
B3 | 87.31

Each molecule was assayed on phosphatidylcholine (PC) liposomes (assay: Yeast proteome chip probed with PC liposomes). Details: liposome binding signal on yeast proteome chip, Cy3-streptavidin detection.
Outline: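 Binding of arrayed yeast proteins to sonicated PC liposomes, with or without 5% (w/w) phosphoinositide, is scored by streptavidin fluorescence on the biotinylated lipid tracer.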

Molecule | PC
B1 | 37.86
B2 | 31.70
B3 | 39.33

These molecules were tested on PI(3,4,5)P3 liposomes (assay: Yeast proteome chip probed with PI(3,4,5)P3 liposomes). Details: liposome binding signal on yeast proteome chip, Cy3-streptavidin detection.

Molecule | PI(3, 4, 5)P3
B1 | 27.45
B2 | 26.89
B3 | 13.05
